Experimental findings from paper PMC4605295, “The N-terminus of RPA large subunit and its spatial position are important for the 5′->3′ resection of DNA double-strand breaks” (Nucleic Acids Research, 2015) are described below.

This assay addresses T1, GST fusion of Xenopus RPA1 (RPA large subunit) (Xenopus, UniProt Q01588 1-609).
T1 construct: Xenopus RPA1, large subunit of replication protein A; the gene for the subunit was subcloned into a pGEX vector; In-frame GST fusion from a pGEX vector; also called the large subunit; source: E. coli BL21(DE3), purified (glutathione Sepharose)
The assay is described as follows: pull-down; GST fusions of RPA subunits or RPA1 regions incubated with His-tagged WRN 1-465, isolated on glutathione Sepharose beads, 4°C 1 h; washed with buffer A + 150 mM NaCl + 0.005% NP-40; Western blot for WRN. The settings on record: both partners purified. (In western blotting, separated proteins are transferred to a membrane and probed.)

T1 sequence (Q01588 whole entry, the tested form may be a part): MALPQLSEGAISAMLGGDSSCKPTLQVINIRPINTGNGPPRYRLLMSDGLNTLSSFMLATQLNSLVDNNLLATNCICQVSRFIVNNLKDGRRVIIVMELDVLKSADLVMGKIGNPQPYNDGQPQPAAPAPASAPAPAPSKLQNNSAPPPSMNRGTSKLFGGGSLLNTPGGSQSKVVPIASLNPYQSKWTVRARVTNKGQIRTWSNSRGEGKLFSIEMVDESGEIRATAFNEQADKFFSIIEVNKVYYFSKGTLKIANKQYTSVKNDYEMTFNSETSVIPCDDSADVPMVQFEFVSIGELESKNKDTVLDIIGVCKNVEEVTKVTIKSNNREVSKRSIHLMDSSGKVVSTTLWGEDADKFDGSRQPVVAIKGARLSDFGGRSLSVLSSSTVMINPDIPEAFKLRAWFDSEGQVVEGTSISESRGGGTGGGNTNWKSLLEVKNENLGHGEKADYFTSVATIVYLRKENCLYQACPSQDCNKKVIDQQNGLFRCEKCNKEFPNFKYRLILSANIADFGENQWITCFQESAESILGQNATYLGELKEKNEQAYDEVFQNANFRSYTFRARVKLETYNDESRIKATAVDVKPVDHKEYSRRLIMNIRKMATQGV

B1: His-tagged Xenopus WRN 1-465 (domain or fragment, UniProt O93530 1-465, looked up)
chain: MTSLQRKLPEWMSVKQQEDRIDDAKKSFCKKNILEDNLPFMKFNGSIVYSYESNDCSLLSEDIRSSLLEEDVLGFDIEWPPVYTKGKTGKVALIQVCVSEKKCYLFHISPMAGFPKGLKRLLEDESVRKVGVGIEGDQWKLMSDYELKLKGFIELSEMANQKLRCKEKWTFNGLIKHLFKEQLYKRKSYRCSNWDIFLLTEDQKLYAATDAYAGLLIYKKLEGMDAHESDSFRVGREGVADCKGVKRQLTDLSKGLMDLVNQVPNSFGCYTEAVRAVDILEDLSEKLEELRNIMKEASKAEGNGLHFQNSEDCSKKDKSILHVACKESLAEHKMDCKNADSQNNKDIDSCQNENRDEDFFMTLGISEEELYMMEREDDKKQTNPDYKLNKDSCDTNEEKDMSYVIESDEDFDSEIIKSLEDLDNSTEEALGTGVPQAGLIPAKSVDTVADEEEDEGIEEEDDDDD
Turning to B1, the binding result is “binds”.
